From the nanobody polyreactivity screen of Harvey et al. (2022)

Experiment: yeast display, Sf9 membrane polyspecificity reagent, FACS + sequencing; frameworks hold sequencing errors
In short: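 Galactose-induced (36–48 hours) yeast carrying a synthetic nanobody display library were exposed to 10% biotinylated, detergent-solubilized Sf9 membrane reagent at 4 °C for 1 hour. FACS followed streptavidin microbead enrichment, using low and high (top ~1%) gates for expression (anti-HA) and reagent binding (streptavidin). Colony PCR, MiSeq 2 × 250 sequencing and CDR-length filtering followed. Labels for polyreactivity reflect the gate of origin.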

Sequence	polyreactivity (PSR sort gate)
QVQLVESGGGLVQAGGSLRLSCAASGSIFYWNAMGWYRQAPGKERELVAAIDYSDGSTYYADSVKGRFTISRDNAKNTVYLQMNSLKPEDTAVYYCAAEWYYDLYDYWGQGTQVTVSS	high polyreactivity
QVQLVESGGGLVQAGGSLRLSCAASGFIFRGYAMGWYRQAPGKERELVAAINSGGSTNYADSVKGRFTISRDNAKNTVYLQMNSLKPEDTAVYYCAARVKTSYRYLRTYNYWGQGTQVTVSS	high polyreactivity
QVQLVESGGGLVQAGGSLRLSCAASGRTFKKYTMGWYRQAPGKERELVAVITSGGSTYYADSVKGRFTISRDNAKNTVYLQMNSLKPEDTAVYYCATKASYKGDYWGQGTQVTVSS	high polyreactivity
QVQLVESGGGLVQAGGSLRLSCAASGYTFGLYTMGWYRQAPGKEREFVATIDWSDGGTHYADSVKGRFTISRDNAKNTVYLQMNSLKPEDTAVYYCNADWYAYPYGYWGQGTQVTVSS	low polyreactivity
QVQLVDSRGGLVQAGGSLRLSCAASGIIFFDYTMGWYSQAPGKERELVASITRGGSTYADSVKGRFTISRDNAMNSVYLQMNSLKPEDTAVYYCAATIVDYDAYGYWGQGTQVTVSS	low polyreactivity
QVQLVESGGGLVQAGGSLRLSCAASGSTFAKYAMGWYRQAPGKERELVAAISSSGTSTYYADSVKGRFTISRDNAKNTVYLQMNSLKPEDTAVYYCAASYRNRYIAFYYWGQGTQVTVSS	low polyreactivity
QVQLVESGGGLVQAGGSLRLSCAASGSIFGRYAMGWYRQAPGKERELVAAITFSGASTYYADSVKGRFTISRDNAKNTVYLQMNSLKPEDTAVYYCAADGGTIEGDYWGQGTQVTVSS	low polyreactivity
QVQLVESGGGLVQAGGSLRLSCAASGSIFRYYAMGWYRQAPGKERELVAAISSGTITNYADSVKGRFTISRDNAKNTVYLQMNSLKPEDTAVYYCAADTWYLGYPDYWLDYWGQGTQVTVSS	low polyreactivity
QVQLVESGGGLVQAGGSLRLSCAASGSIFTYYAMGWYRQAPGKERELVATITGLGGRTYYADSVKGRFTISRDIAKNTVYLQMNSLKPEDTAVYYCAVVPETRYYYWGHGTQVTVSS	high polyreactivity
QDQLVESGGGLVQAGGSLRISSAASGRTYKSNAMGWYRQAPGKERELVATISRGGGSTYYADSVKGRFTISRDNAKNTVYLQMNSLKPEDTAVYYCAKGSNSYLRYHYTYPYDYWGQGTQVTVSS	high polyreactivity
QVQLVESGGGLVQAGGSLRLSCAASGIFRYYAMGWYRQAPGKERELVASITGGGSTYYADSVKGRFTISRDNAKMTVYLQLNSLKPEDTAVYYCNTAGAYYRWTPYYYWGQGTQVTVSS	high polyreactivity
QVQLVESGGGLVQAGGSLRLSSAASGFTFYYNAMGWYRQAPGKERELVAAITRTGSTNYADSVKGRFTISRDNAKNTVYLQMNSLKPEDTAVYYCAKTYRRTNWGTYDYWGQGTQVTVSS	high polyreactivity
QVQLVESGGGLVQAGGSLRLRCAASGSTFAVYAMGWYRQAPGKERELVATIRWNGGSTYYADSVKGRFTISRDNAKNTVYLQMNSLKPEDTAVYYCAAPPIRPNLYDYWGQGTQVTVSS	high polyreactivity
QVQLVESGGVLVQAGGSLRLSCAASGLTFGGNAKGWYRPAPGKERELVAAISWSDDTTDYADSVKGRFTISRDNAKNTVYLQMNSLKPEDTAVYYCAARLPFEYVDYWGQGTQVTVSS	low polyreactivity
QVQHVESGGGLVQAGGSLRLSCAASGFIFTYYGMGWYRQAPGKERELVAAITWSGASTYYADSVKGRFTISRDNAKNTVYLQMNSLKPEDSAVYYCNAVWDSGIVQSDETVYKYDYWGQGTQVTVSS	low polyreactivity
QVQLVESGGGLVQAGGSLRLSCAASGSIFPSYAMGWYRQAPGKERELVAAISRSAGSTYYADSVKGRFTISRDNAKNTVYLQMNSLKPEDTAVYYCAADGYSSRYRYDYWGQGTQVTVSS	low polyreactivity
QVQLVESGGGLVQAGGSLRLSCAASGFTFPYYAMGWYRQAPGKERELVARISSGGSTNYADSVKGRFTISRDNAMNTVYLEMNSLKPEDTAVYYCNKGWYYRPRFYSSSDYWGQGTQVTVSS	high polyreactivity
QVQLQESGGGLVQAGGSLRLSCAASGYIYSWYPMGWYLQAPGKEREFVATIAPGATTYYADSVKGRFTISRDYAKNTVYLQMNSLKTEDTAVYYCAAGAENNDFYSYWGHGTQVTVSS	low polyreactivity
QVQLVESGGGLVQAGGSLRLSCAASGSIFKINTMGWYRQAPRQERELVAAISKRGGSTYYADSVKGRFTISRDNAKITVYLQMNSLKPDDTAVYYCAAREFYKYYYWGQVTQVTVSS	high polyreactivity
QVQLVESGGGLVQAGGSLRLSCAASGSIFDSNAMGWYRQAPGKERELVAVITGSGGITYYADSVKGRFTISRDNAKNTVYLQMNRLKPEDTAVYYCYADYYLSEDGTWIYDYWGQGTQVTVSS	high polyreactivity
QVQLVESGGGLVQAGGSLRLSCAASGNIFTTYAMGWYRQAPGKERELVAAISRTGGRTSYADSVKGRFTISRDNAKNTVYLEMNSLKPVDTAVYYCADTLWRQSNLEYWGQGTQVTVSS	high polyreactivity

Sequence	polyreactivity (PSR sort gate)
QVQLVESGGGLVQAGGSLRLSCAASGFTFPVYAMGWYRPAPGIEREFVAASTKSGGGTYYADSVKGRCTLSRDNAKKTVYGQMNSLKPEETAVYYCAKASRRFLTLGSDYWGQGTQVTVSS	high polyreactivity
QVQLVESGGGLVQAGGSLRLSCAASGITFYLYAMGWYRQAPGKERELVAAISGRGGITYYADSVKGRFTISRDNAKNTVYLQMNSLKPEDTAVYYCAAGKLIWGQGTQVTVSS	high polyreactivity
QVQLVESGGGLVQAGGSLRLSCAASGIIFRGYVMGWYRQAPGKERELVAAISTSGGRTSYADSVKGRFTISRDNAKNTVYLQMNSLKPEDTAVYYCAARPLYSYSQWGYGYWGQGTQVTVSS	high polyreactivity
QVQLVESGGGLVQAGGSLRLSCAASGIIFRSYTMGWYRQAPGKERELVASITRSGGITYYADSVKGRFTISRDNAKNTVYLQMNSLKPEDTAVYYCAARHRYYYQYRSDYWGQGTQVSVSS	high polyreactivity
QVQLVESGGGLVQAGGSLRLSCAAYGFTFTRKAMGWYRQAPGKERELVAAISGSGGSTYYADSVKGRYTISRDNAKNTVYLQMNSLKPADTAVYYCAKDGWWRKYDYWGQGTQVTVSS	high polyreactivity
QVQLVESGGGLVQAGGSLRLSCAASGRILKYYAMGWYRQAPGKERELVAAITSDVNTYYADSVKGRFTISRDNAKNTVYLQMNSLKPEDTAVYYCNADADDYRDYQDYDYWGQGTQVTVSS	low polyreactivity
QFQLVESGRGLVQAGGSLRLSCAASGRIFSYNTLGWYRQAPGKERELVAAITNNGGSTYYADSVKGRFTISRDNAKNTVYLQMNSLKPEDTAVYYCNRDRYPFYYAYNYWGQGTQVTVSS	low polyreactivity
QVQLVESGGGLVHAGGSLRLSCAASGFTFLRYVMGWYRQTPGKERELVAAISYSGGRTYYADSVKGRFTISRDNAKKTVYLQMNSLKPEDTAVYYCAAESFYPAGFRGYWGQGTQVTVSS	high polyreactivity
QVQLVESGGGLVQAGGSLRLSCAASGFIFDYYAMGWYRQAPGKERELVAAITRDGGGTYYADSVKGRFTISRDNAKNTVYLQMNSLKPEDTAVYYCAARRAVRLYYWGQGTQVTVSS	high polyreactivity
QVQLVESGGGLVQAGGSLRLSCAASGFTFRGYAMGWYRQAPGKERELVAAISGSGGRTHYADSVKGRFTISRDNAKNTVYLQMNSLKPEDTAVYYCNAVPYSRPLGNNYWGQGTQVTVSS	high polyreactivity
QVQLVESGGGLVQAGGSLRLSCAASGSTFEFYAMGWYRQAPGKERELVAAIWRGGSTHYADSVKGRFTISRDNAKNTVYLQMNSLKPEDTAVYYCAASPYIFWRFEYWGQGTQVTVSS	low polyreactivity
QVQLVESAGGLFQEGGSLRVSCAASGSTFSYYDMGGYRQAPGKERELVAAINSTGITTYADSVKGRFTISRDNAKNTVYLQMNSLKPEDTAVYYCAAYHNYWGPYVWEEDYWGQGTQVTVSS	low polyreactivity
QVQLVESGGGLVQAGGSLRLSCAASGFIFTVNAMGWYRQAPGKERELVAAITQSGGNTSYADSVKGRFTISRDNAKNTVYLQMNSLKPEDTAVYYCNASSDTSRYGVSTYYYWGQGTQVTVSS	low polyreactivity
QVQLVESGGGLVLAGGSLRLSCAASGITFKWYAMGWYRQAPGKERELVAAITSGGGTNYADSVKGRFTISRDNAKNTVYLQMNSLKPEDTAVYYCAARFYQLPWRRYDYWGQGTQVTVSS	high polyreactivity
QFQLVESGGGLVQAGGSLRLSCAASGSTFNYNAMGWYRQAPGIERELVAAISSSAGSTYYADSVKGRFTISRDNAKNTVYLQMNILKPEDTAVYYCANGGSSRVRTEGDYWGQGTQVTVSS	low polyreactivity
QVQHVESVGGLVQAGGSLRVSCAASGTIFTFYTMGRYRPAPGKERELVAAISQTGGRTYYGDSVKGRFTISRDNAKNTVYLQMNSLKPEDTAVYYCAASVGRYAGNYWGQGTQVTVSS	high polyreactivity
QVQLVESGGGLVQAGGSLRLSCAASGYTFSHYAMGWYRQAPGKERELVAGITWSGGSTYYADSVKGRFTISRDNAKNTVYLQMNSLKPEDTSVYYCAAKYYWYYSYSGIPLFDYWGHGTQVTVSS	low polyreactivity
QVQLEESGGGLVQAGGSLRLSCAASGRTIQDNAMGWYRQAHGKERELVAAIRDNGGSTYYADSVKGRFTISRDNAKNTVFLQMNSLKPEDTAVYYCAADQGTGSYDYWGQGTQVTVSS	low polyreactivity
QVQLVESGGGLVQAGGSLRLSCAASGFIFYIYAMGWYRQAPGKERELVAAITSGGSTYYADSVKGRFTISRDNAKNTVYLQMNSLKPEDTAVYFCAAESYYGYDYWGQGTQVTLSS	low polyreactivity
QVQLVESGGGLVQAGGSLRFSCAASGPIFYNNAMGGYRQAPGKERELHAAISYSGGRTYYADSVKGRFTISRDNAKNTVYLQMNSLKPEDTAVYYCATRYARTAYIRSEYWGQGTQVTVSS	high polyreactivity
